Test results published in patent US6713273B2, “High expression and production of high specific activity recombinant S-adenosyl homocysteinase (SAHH) and improved assays for S-adenosylmethionine (SAM)” (priority 2000, dated 2004).

How the values were obtained:
[1] = SAHH activity measurement (SAH hydrolysis coupled to rHCYase, DBPDA readout); format: biochemical
Description: Assay buffer: 20 mM potassium phosphate, pH 8.0, 1 mM DTT, and 1 mM EDTA.
2 mM S-adenosyl-L-homocysteine (SAH)
L-homocysteine (various concentrations)
40 mM DBPDA, dissolved in 6 M HCl
40 mM potassium ferricyanide
Mix well and incubate at 37° C. for 10 min. and read absorbance at 675 nm or fluorescence at EX665 nm/EM690 nm. 1 unit is defined as 1 μmole of S-adenosylhomocysteine hydrolated in 1 min. at 37° C. in the presence of excess rHCYase.

[2] = Stability study of SAHH / His•SAHH; format: physicochemical; settings: 45° for three days; FIGS. 2 and 5
Description: FIG. 2 contains the results of a stability study of SAHH.
FIG. 5 contains the results of a stability study of His•SAHH.
The SAHH enzyme of the invention has favorable properties. For instance, the SAHH has a high specific activity of at least […]. Further, the cloned SAHH of the invention provides a high expression of 20% of total cell protein. Moreover, SAHH produced according to the method of the invention has high stability as illustrated in the attached FIGS. 2 and 5.
The enzyme was formulated as follows: 20 mM potassium phosphate buffer, pH 7.6, 100 mM sodium chloride, 30% glycerol, 1 mM DTT, 1 mM NAD, and 1 mM EDTA.

B1: SAHH: Recombinant T. vaginalis S-adenosyl homocysteinase encoded by SEQ ID NO:1 (amino acid SEQ ID NO:7), expressed in E. coli (protein, listed as Homo sapiens)
chain: MACKSPTGAPFEYRIADINLHVLGRKELTLAEKEMPGLMVLRERYSASKPLKGVRISGSLHMTVQTAVLIETLTALGADVRWASCNIFSTQDTAAAAIVVGPTGTPEKPAGIPVFAWKGETLPEYWENTYRALTWPDGQGPQQVVDDGGDATLLISKGFEFETAGAVPEPTEADNLEYRCVLATLKQVFNQDKNHWHTVAAGMNGVSEETTTGVHRLYQLEKEGKLLFPAINVNDAVTKSKFDNIYGCRHSLIDGINRASDVMIGGKTALVMGYGDVGKGCAQSLRGQGARVIITELDPICALQAAMEGYQVRRIEEVVKDVDIFVTCTGNCDIISVDMMAQMKDKAIVGNIGHFDNEIDTDGLMKYPGIKHIPIKPEYDMWEFPDGHAILLLAEGRLLNLGCATGHPSFVMSMSFTNQTLAQLDLYEKRGNLEKKVYTLPKHLDEEVARLHLGSLDVHLTKLTQKQADYINVPVEGPYKSDAYRY
specific activity ([1]; general statement on the SAHH of the invention): at least 1.5 U/ml | specific activity ([1]; purified enzyme, 1 unit = 1 μmole SAH hydrolated in 1 min at 37° C. with excess rHCYase): 1.64 units/mg protein | stability (activity loss) [2]: without activity loss
